Measured values taken from paper PMC10870172, “Single-molecule FRET probes allosteric effects on protein-translocating pore loops of a AAA+ machine” (Biophysical Journal, 2024).
Each block holds one binder with its values, some of them ahead of it.

B2: Thermus thermophilus ClpB variant with truncated N-terminal domain, starting at residue 141 (Val) (domain or fragment)
chain: not shown
notes: ClpB, Thermus thermophilus, N-terminal domain truncated, starting at residue 141 (Val); numbering as in full-length TT ClpB; no cysteine replacement is printed; Theoretical MW of the hexamer 484.8 kDa (D1:p9); also called wt; dNClpB; source: E. coli, purified

Tests used:
[1] = target: T1, PL1 BB: reassembled ClpB hexamer with one Alexa-labelled S236C-S359C E271A/E668A protomer among unlabelled … (Thermus thermophilus, UniProt Q9RA63 141-854; Q9RA63 141-854, S236C | S359C | E271A | E668A | E271A | E668A, Alexa Fluor 488 C5 maleimide and Alexa Fluor 594 C5 maleimide on the cysteines at 236 and 359); assay: other fluorescence titration; single-molecule FRET on freely diffusing reassembled ClpB hexamers (1:100 labeled:unlabeled, ~50 pM labeled, ~5 nM total ClpB), increasing concentrations of unlabeled κ-casein; ratio of the H2MM-derived population of state 1 with and without casein fitted to a simple binding isotherm; 25 mM HEPES, 25 mM KCl, 10 mM MgCl2, 2 mM ATP, 0.01% Tween 20, pH 8, 22°C; conditions: both partners purified
T1 construct: ClpB, Thermus thermophilus, N-terminal domain truncated, starting at residue 141 (Val); numbering as in full-length TT ClpB; ClpB, Thermus thermophilus, N-terminal domain truncated, starting at residue 141 (Val), unlabelled cysteine-less; With the 1:100 ratio most hexamers hold no labelled protomer; only hexamers with one labelled protomer give the signal; also called PL1 double-Walker B …

[2] = target: T2, PL3 BB: reassembled ClpB hexamer with one Alexa-labelled S359C-Y646C E271A/E668A protomer among unlabelled … (Thermus thermophilus, UniProt Q9RA63 141-854; Q9RA63 141-854, S359C | Y646C | E271A | E668A | E271A | E668A, Alexa Fluor 488 C5 maleimide and Alexa Fluor 594 C5 maleimide on the cysteines at 359 and 646); assay: as above; conditions: both partners purified
T2 construct: ClpB, Thermus thermophilus, N-terminal domain truncated, starting at residue 141 (Val); numbering as in full-length TT ClpB; ClpB, Thermus thermophilus, N-terminal domain truncated, starting at residue 141 (Val), unlabelled cysteine-less; With the 1:100 ratio most hexamers hold no labelled protomer; only hexamers with one labelled protomer give the signal; also called PL3 double-Walker B …

[3] = target: the molecule itself; assay: native gel or EMSA; native gel (6% acrylamide), stained with Coomassie Blue; run at 4°C, 30 V, 2 mM ATP, 4 mM Mg2+; NativeMark Unstained Protein Standard
[4] = target: B2; assay: native gel or EMSA; native PAGE (6% acrylamide) of 1:100 labeled:unlabeled ClpB samples after the refolding and mixing procedure; stained with Coomassie Blue, panel a also imaged with a Typhoon scanner at 532 nm; run at 4°C, 30 V, 2 mM ATP, 4 mM Mg2+; conditions: both partners purified
[5] = target: the molecule itself; assay: as above

Kd [1]: 2 µM
Kd [2]: 1.6 µM
B1: κ-casein (natural protein)
chain: not shown
notes: κ-casein (Sigma Aldrich), unlabelled soluble model substrate protein; also called model substrate protein; source: bought: Sigma Aldrich

Binder: B2
stoichiometry N [3]: 6

binding result [4]: binds
B3: ClpB (N-terminally truncated, from residue 141) S359C-Y646C, labelled with Alexa Fluor 488 and Alexa Fluor 594 (domain or fragment)
chain: not shown
modifications: Alexa Fluor 488 C5 maleimide and Alexa Fluor 594 C5 maleimide on the cysteines at 359 and 646
notes: ClpB, Thermus thermophilus, N-terminal domain truncated, starting at residue 141 (Val); numbering as in full-length TT ClpB; The labelled protomer alone, as mixed 1:100 with unlabelled ClpB (Dm4); also called PL3; PL3 construct S359C-Y646C; source: E. coli, purified, labelled

B4: ClpB (N-terminally truncated, from residue 141) K347A (domain or fragment)
chain: not shown
notes: ClpB, Thermus thermophilus, N-terminal domain truncated, starting at residue 141 (Val); numbering as in full-length TT ClpB; also called hyper; hyperactive mutant; source: E. coli, purified
binding result [5]: binds

B5: ClpB (N-terminally truncated, from residue 141) K204T (domain or fragment, Thermus thermophilus, UniProt Q9RA63 141-854, looked up)
chain: VQTEHAESTYNALEQYGIDLTRLAAEGKLDPVIGRDEEIRRVIQILLRRTKNNPVLIGEPGVGTTAIVEGLAQRIVKGDVPEGLKGKRIVSLQMGSLLAGAKYRGEFEERLKAVIQEVVQSQGEVILFIDELHTVVGAGKAEGAVDAGNMLKPALARGELRLIGATTLDEYREIEKDPALERRFQPVYVDEPTVEETISILRGLKEKYEVHHGVRISDSAIIAAATLSHRYITERRLPDKAIDLIDEAAARLRMALESAPEEIDALERKKLQLEIEREALKKEKDPDSQERLKAIEAEIAKLTEEIAKLRAEWEREREILRKLREAQHRLDEVRREIELAERQYDLNRAAELRYGELPKLEAEVEALSEKLRGARFVRLEVTEEDIAEIVSRWTGIPVSKLLEGEREKLLRLEEELHKRVVGQDEAIRAVADAIRRARAGLKDPNRPIGSFLFLGPTGVGKTELAKTLAATLFDTEEAMIRIDMTEYMEKHAVSRLIGAPPGYVGYEEGGQLTEAVRRRPYSVILFDEIEKAHPDVFNILLQILDDGRLTDSHGRTVDFRNTVIILTSNLGSPLILEGLQKGWPYERIRDEVFKVLQQHFRPEFLNRLDEIVVFRPLTKEQIRQIVEIQLSYLRARLAEKRISLELTEAAKDFLAERGYDPVFGARPLRRVIQRELETPLAQKILAGEVKEGDRVQVDVGPAGLVFAVPARVEA
notes: ClpB, Thermus thermophilus, N-terminal domain truncated, starting at residue 141 (Val); numbering as in full-length TT ClpB; also called A1; Walker A1; source: E. coli, purified
binding result [5]: binds

B6: ClpB (N-terminally truncated, from residue 141) double Walker B mutant E271A/E668A (domain or fragment, Thermus thermophilus, UniProt Q9RA63 141-854, looked up)
chain: VQTEHAESTYNALEQYGIDLTRLAAEGKLDPVIGRDEEIRRVIQILLRRTKNNPVLIGEPGVGKTAIVEGLAQRIVKGDVPEGLKGKRIVSLQMGSLLAGAKYRGEFEERLKAVIQEVVQSQGEVILFIDALHTVVGAGKAEGAVDAGNMLKPALARGELRLIGATTLDEYREIEKDPALERRFQPVYVDEPTVEETISILRGLKEKYEVHHGVRISDSAIIAAATLSHRYITERRLPDKAIDLIDEAAARLRMALESAPEEIDALERKKLQLEIEREALKKEKDPDSQERLKAIEAEIAKLTEEIAKLRAEWEREREILRKLREAQHRLDEVRREIELAERQYDLNRAAELRYGELPKLEAEVEALSEKLRGARFVRLEVTEEDIAEIVSRWTGIPVSKLLEGEREKLLRLEEELHKRVVGQDEAIRAVADAIRRARAGLKDPNRPIGSFLFLGPTGVGKTELAKTLAATLFDTEEAMIRIDMTEYMEKHAVSRLIGAPPGYVGYEEGGQLTEAVRRRPYSVILFDAIEKAHPDVFNILLQILDDGRLTDSHGRTVDFRNTVIILTSNLGSPLILEGLQKGWPYERIRDEVFKVLQQHFRPEFLNRLDEIVVFRPLTKEQIRQIVEIQLSYLRARLAEKRISLELTEAAKDFLAERGYDPVFGARPLRRVIQRELETPLAQKILAGEVKEGDRVQVDVGPAGLVFAVPARVEA
notes: ClpB, Thermus thermophilus, N-terminal domain truncated, starting at residue 141 (Val); numbering as in full-length TT ClpB; also called BB; source: E. coli, purified
stoichiometry N [3]: 6

B7: ClpB (N-terminally truncated, from residue 141) E271A (domain or fragment, Thermus thermophilus, UniProt Q9RA63 141-854, looked up)
chain: VQTEHAESTYNALEQYGIDLTRLAAEGKLDPVIGRDEEIRRVIQILLRRTKNNPVLIGEPGVGKTAIVEGLAQRIVKGDVPEGLKGKRIVSLQMGSLLAGAKYRGEFEERLKAVIQEVVQSQGEVILFIDALHTVVGAGKAEGAVDAGNMLKPALARGELRLIGATTLDEYREIEKDPALERRFQPVYVDEPTVEETISILRGLKEKYEVHHGVRISDSAIIAAATLSHRYITERRLPDKAIDLIDEAAARLRMALESAPEEIDALERKKLQLEIEREALKKEKDPDSQERLKAIEAEIAKLTEEIAKLRAEWEREREILRKLREAQHRLDEVRREIELAERQYDLNRAAELRYGELPKLEAEVEALSEKLRGARFVRLEVTEEDIAEIVSRWTGIPVSKLLEGEREKLLRLEEELHKRVVGQDEAIRAVADAIRRARAGLKDPNRPIGSFLFLGPTGVGKTELAKTLAATLFDTEEAMIRIDMTEYMEKHAVSRLIGAPPGYVGYEEGGQLTEAVRRRPYSVILFDEIEKAHPDVFNILLQILDDGRLTDSHGRTVDFRNTVIILTSNLGSPLILEGLQKGWPYERIRDEVFKVLQQHFRPEFLNRLDEIVVFRPLTKEQIRQIVEIQLSYLRARLAEKRISLELTEAAKDFLAERGYDPVFGARPLRRVIQRELETPLAQKILAGEVKEGDRVQVDVGPAGLVFAVPARVEA
notes: ClpB, Thermus thermophilus, N-terminal domain truncated, starting at residue 141 (Val); numbering as in full-length TT ClpB; also called B1; Walker B1; source: E. coli, purified
binding result [5]: binds

B8: ClpB (N-terminally truncated, from residue 141) E668A (domain or fragment)
chain: not shown
notes: ClpB, Thermus thermophilus, N-terminal domain truncated, starting at residue 141 (Val); numbering as in full-length TT ClpB; also called B2; Walker B2; source: E. coli, purified
binding result [5]: binds
